In data set [1] the target is TROP2 FcHis (human TROP2 fused to IgG1 FcHis) (human, UniProt P09758 27-274+P01857:100-328, internal_change). Put plainly: capillary electrophoresis; 10 nM DNA, 4-fold protein; 20 mM Tris-HCl pH 7.4, 10 mM NaCl, 1 mM MgCl2, 0.05% Tween 20; 10 nM aptamer, 37 °C 30 min, then held at 15 °C; CE running buffer 100 mM sodium borate pH 8.35. Particulars: protein: commercial; IgG1 Fc-His fusion; chain copies: 2; label: 5' FAM.

Data set [2] addresses FcHis (human IgG1 Fc-His, counter-target for specificity) (human, UniProt P01857 100-328). The description is as above. Particulars: protein: commercial; tags: His; chain copies: 2; label: 5' FAM.
Data set [3] addresses IgG1 Fc (Homo sapiens (Human), UniProt P01857 104-328, glycosylated). Put plainly: capillary electrophoresis; 20 mM Tris pH 7.4, 10 mM NaCl, 1 mM MgCl2, 0.05% Tween 20, 37 C. Particulars: tags: His; chain copies: 2; label: 5'-FAM.

A value given as a limit tells only on which side of the number the result lay.

As a reminder, the Kd is the equilibrium constant for the complex coming apart. Low readings indicate tighter binding, high ones weaker binding.

Sequence of TROP2 FcHis (human TROP2 fused to IgG1 FcHis) (P09758 other isoform, or with tags, fused parts or gaps): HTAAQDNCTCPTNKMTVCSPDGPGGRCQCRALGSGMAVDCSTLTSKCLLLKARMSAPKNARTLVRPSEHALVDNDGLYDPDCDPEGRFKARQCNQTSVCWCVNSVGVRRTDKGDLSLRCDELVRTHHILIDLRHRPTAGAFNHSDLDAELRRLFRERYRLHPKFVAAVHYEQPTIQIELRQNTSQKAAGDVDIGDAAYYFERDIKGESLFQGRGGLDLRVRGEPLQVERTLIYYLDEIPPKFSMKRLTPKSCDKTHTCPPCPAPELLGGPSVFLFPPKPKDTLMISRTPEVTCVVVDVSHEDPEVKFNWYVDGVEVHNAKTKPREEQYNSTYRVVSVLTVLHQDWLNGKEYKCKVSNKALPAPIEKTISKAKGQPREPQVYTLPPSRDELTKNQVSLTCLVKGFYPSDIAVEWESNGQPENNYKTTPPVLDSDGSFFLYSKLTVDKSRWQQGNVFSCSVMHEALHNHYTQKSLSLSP

B1: ssDNA_neg (ssDNA)
DNA: TCGCCTTGCCGGATCGCAGACTTCCCCCCACTCCACTTCTTACTCCTTTCTGGTCCGTGAGCCTGACACC
Take B1: the binding result in data set [1] and in data set [2] was “no binding” in each case.

B2: Tac-A5 (ssDNA)
DNA: TCGCCTTGCCGGATCGCAGATCTGTTCCGTGTTCGTTCCTTTCCTTGTTGTGGTCCGTGAGCCTGACACC
modifications: every T at positions 21-70 is 5-[(3-indolyl)propionamide-N-allyl]-dU (Utrp); T in 5' primer region (1-20) natural
The molecule B2 yielded a Kd in data set [3] greater than 1000 nM.

Source of the values: publication PMC8232673, “Hybrid-Type SELEX for the Selection of Artificial Nucleic Acid Aptamers Exhibiting Cell Internalization Activity”.
